Data reported in patent US20210324080A1 (JIANGSU HUAIYU PHARMACEUTICAL, published 2021).
Numbering of substitutions follows the chain as printed.

Experiments:
[1] = target: T1, monkey CTLA-4, full length, on transfected HEK293 cells (monkey); experiment: FACS, 293F-cCTLA-4 cells
T1 construct: whole, on cells; also called cCTLA-4; HEK293-cCTLA-4
Excerpt: (§1) The pIRES plasmid with the monkey-derived CTLA-4 full-length gene was transfected into the HEK293 cell line to construct a HEK293 stable cell line containing monkey CTLA-4 (herein referred to as HEK293-cCTLA-4 stable cell line), wherein the database accession number of the monkey CTLA-4 nucleotide sequence is XM_005574014.1. The HEK293-hCTLA-4 stable cell line and HEK293-cCTLA-4 stable cell line were expanded in a T-75 cell culture flask to a 90% confluence. The medium was aspirated, and the cells were washed with HBSS buffer (Hanks Balanced Salt Solution, purchased from Invitrogen) twice, then treated with an enzyme-free cell dissociation fluid (Versene solution, purchased from Life technology) and the cells were collected. The cells were washed with HBSS buffer twice. After counted, the cells were diluted with HBSS buffer to 2×10⁶ cells per ml, added with 1% goat serum blocking solution, wherein the percentage was the mass percantage. Cells were incubated on ice for 30 minutes, then washed twice with HBSS buffer by centrifugation. The collected cells were suspended in the FACS buffer (HBSS containing 1% BSA, wherein the percentage was the mass percantage) to 2×10⁶ cells/ml, added as 100 microliters per well to a 96-well FACS reaction plate, added with 100 microliters per well of the purified CTLA-4 antibody sample to be tested, incubated on ice for 2 hours. The plate was washed twice with the FACS buffer by centrifugation, added with 100 microliters of fluorescent (Alexa 488)-labeled secondary antibodies (purchased from Invitrogen) per well, and incubated on ice for 1 hour. The plate was washed 3 times with FACS buffer by centrifugation, added with 100 μl fixative solution [4% (v/v) Paraformaldehyde] per well to suspend the cells. 10 minutes later, it was washed 2 times with FACS buffer by centrifugation. The cells were suspended with 100 microliters of FACS buffer, FACS (FACS Calibur, purchased from BD) was used for detection and the results were analyzed.

[2] = target: T2, CTLA-4-hFc (immunogen A; hFc-labeled CTLA-4 extracellular domain protein) (human, UniProt P16410 36-161); experiment: competition ELISA: CTLA-4-hFc coated, antibody titrated, blocked ligand biotin-labeled B7.2-hFc, HRP-avidin, A450, inhibition (%)
T2 construct: range 36-161; Made in HEK293 cells, purified on protein A; also called CLTA-4-hFc; CTLA-4 protein; not shown: human IgG Fc fragment (hFc) of the pCpC vector
T2 sequence (looked up): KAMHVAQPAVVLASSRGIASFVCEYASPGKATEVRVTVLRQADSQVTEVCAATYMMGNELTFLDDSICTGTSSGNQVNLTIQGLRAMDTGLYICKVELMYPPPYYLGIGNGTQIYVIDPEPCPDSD
Experimental: (§2) CTLA-4 extracellular domain protein (CTLA-4-hFc) was diluted with PBS to a final concentration of 1.0 μg/mL, and then added to a 96-well ELISA plate as 100 μl per well. The plate was covered with a plastic film and incubated overnight at 4° C. The plate was washed twice with plate washing solution [PBS containing 0.01% (v/v) Tween 20] on the next day, and added with blocking solution [PBS containing 0.01% (v/v) Tween 20 and 1% (w/w) BSA] and blocked at room temperature for 2 hours. […] After 2 hours, the plate was washed 3 times with a plate washing solution [PBS containing 0.01% (v/v) Tween 20]. HRP (horseradish peroxidase) labeled avidin diluent (purchased from Sigma) was added 100 microliters per well, and after the plate was incubated for 2 hours at 37° C., it was washed with plate washing solution [PBS containing 0.01% (v/v) Tween 20] for 3 times. […] TMB substrate was added to each well. After incubated at room temperature for 30 minutes, the plate was added with […] stop solution (1.0N HCl) to each well. An ELISA plate reader (SpectraMax 384plus, Molecular Device) was used to read the A450 nm value.

[3] = target: T3, human CTLA-4 (Y201V), full length, on transfected cells (human, UniProt P16410 36-223); experiment: FACS, CHOK1-hCTLA-4 cells
T3 construct: whole, on cells; also called hCTLA-4; HEK293-hCTLA-4 (Y201V)
T3 sequence (looked up): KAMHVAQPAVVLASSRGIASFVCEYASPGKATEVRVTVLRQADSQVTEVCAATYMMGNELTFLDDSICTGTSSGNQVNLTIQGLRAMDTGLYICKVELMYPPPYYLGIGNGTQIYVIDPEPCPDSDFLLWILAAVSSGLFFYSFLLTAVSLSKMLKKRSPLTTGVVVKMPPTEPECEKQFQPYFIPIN

[4] = target: T2, CTLA-4-hFc (immunogen A; hFc-labeled …); experiment: competition ELISA: CTLA-4-hFc coated, antibody titrated, blocked ligand biotin-labeled B7.1-hFc, HRP-avidin, A450, inhibition (%)
Experimental: as §2

[5] = target: T2, CTLA-4-hFc (immunogen A; hFc-labeled …); experiment: ELISA, coated CTLA-4-hFc, competitor biotin-B7.1-hFc
Experimental: as §2

[6] = target: T2, CTLA-4-hFc (immunogen A; hFc-labeled …); experiment: ELISA, coated CTLA-4-hFc, competitor biotin-B7.2-hFc
Experimental: as §2

[7] = target: T4, recombinant His-labeled hCTLA-4 ECD protein (human, UniProt P16410 36-161); experiment: SPR Biacore T200, antibody captured by anti-human Fc, 1:1 model
T4 construct: extracellular domain; also called human CTLA-4 ECD; not shown: His label
T4 sequence (looked up): T2 sequence (looked up)
Experimental: Anti-human Fc IgG was fixed on flow cell 1 and 2. HBS-EP+ (10 mmol/L HEPES, 150 mmol/L NaCl, 3 mM EDTA, 0.05% P20, pH 7.4) was used as the running buffer, and anti-human Fc IgG was fixed using the fixing wizard template. The flow cells 1 and 2 connected in series with S CM5 sensor chip were activated with freshly mixed 50 mmol/L NHS and 200 mmol/L EDC. Anti-human Fc IgG was diluted to […] with 10 mmol/L NaAC (pH 4.5) and injected into activated flow cells 1 and 2. The remaining active coupling sites were blocked with 1 mol/L ethanolamine.
The recombinant His-labeled hCTLA-4 ECD protein was diluted to 50 nmol/L, and then serially diluted 4 times with HBS-EP+ buffer at a 2-fold ratio. […] Each antibody was injected into the CM5 sensor flow cell 2 at a flow rate of 10 μL/min to achieve a response of 230 RU. Then the prepared His-labeled hCTLA-4ECD protein was injected into flow cells 1 and 2 at a flow rate of 30 μL/min for 180 seconds. The buffer flow was maintained for 400 seconds for dissociation measurement (30 μL/min). To remove the tested antibody from the surface, 10 mmol/L glycine-HCl pH1.5 was injected for 20 seconds (30 μL/min). Flow cell 1 was used as a reference flow cell. The above steps were repeated for each concentration of serially diluted His-labeled CTLA-4ECD protein. The KD value of each antibody was evaluated using Biacore T200 evaluation software 1.0, and a 1:1 binding model was used to fit the data.

[8] = target: T2, CTLA-4-hFc (immunogen A; hFc-labeled …); experiment: blocking assay, CTLA-4 protein, competitor B7.2
Experimental: as §2

[9] = target: T3, human CTLA-4 (Y201V), full length, on …; experiment: FACS, human CTLA-4 expressing cells
[10] = target: T5, CTLA-4 on human T lymphocytes (PBMC, CD3+ T cells) (human, UniProt P16410 36-223); experiment: cell-based or functional assay
T5 sequence (looked up): T3 sequence (looked up) with V166Y

[11] = target: T1, monkey CTLA-4, full length, on …; experiment: FACS, monkey CTLA-4 expressing cells
Excerpt: as §1

B1: 40C4C6 (chimeric antibody purified from hybridoma supernatant) (antibody, V domains shown)
VH: QVQLVESGGGVVQPGRSLRLSCAASGFTFSSYGMHWVRQAPGKGLEWVAVIWYDGRNKYYADSVKGRFTISRDNSKNTLYLQMNSLRAEDTAVYYCARASGSYSYYFDYWGQGTLVTVSS
VL: DIQMTQSPSSLSASVGGRVTITCRASQSISSFLNWYQHELGKAPKLLIYGASSLQSGVPSRFSGSGSGTDFTLTISSLQPEDFATYYCQQTYSTPFTFGPGTKVDIK
notes: also called mAb09; mAb009
MFI at 0.000128 nM [1]: 2.4 | MFI at 0.0128 nM [1]: 23 | MFI at 0.064 nM [1]: 68.6 | MFI at 0.32 nM [1]: 219 | MFI at 1.6 nM [1]: 421 | MFI at 8 nM [1]: 619 | MFI at 40 nM [1]: 626 | MFI at 200 nM [1]: 643 | IC50 (read off the curve) [2]: ~0.5 nM | MFI at 0.07 nM [3]: 43.3 | MFI at 0.67 nM [3]: 146 | MFI at 6.67 nM [3]: 403 | MFI at 66.67 nM [3]: 449 | IC50 (read off the curve) [4]: ~0.3 nM | Inhibition rate (%) at 0.00091 nM [5]: 0% | Inhibition rate (%) at 0.091 nM [5]: 12.7% | Inhibition rate (%) at 0.274 nM [5]: 40% | Inhibition rate (%) at 0.823 nM [5]: 63.1% | Inhibition rate (%) at 2.5 nM [5]: 75.2% | Inhibition rate (%) at 7.4 nM [5]: 80.7% | Inhibition rate (%) at 22.2 nM [5]: 87.5% | Inhibition rate (%) at 66.7 nM [5]: 89.7% | Inhibition rate (%) at 0.00091 nM [6]: 0% | Inhibition rate (%) at 0.091 nM [6]: 5.3% | Inhibition rate (%) at 0.274 nM [6]: 26.4% | Inhibition rate (%) at 0.823 nM [6]: 53.3% | Inhibition rate (%) at 2.5 nM [6]: 66.6% | Inhibition rate (%) at 7.4 nM [6]: 76.6% | Inhibition rate (%) at 22.2 nM [6]: 84.6% | Inhibition rate (%) at 66.7 nM [6]: 88.7%

B2: 97B8E1 fully human CTLA-4 antibody (human IgG1, kappa) (antibody, V domains shown)
VH: QVQLVESGGGVVQPGRSLRLSCAASGFTFSSYVMHWVRQAPGKGLEWVAVIWSDGRNKYYTDSVKGRFTISRDNSKNTLYLQMSSLRAEDTAVYYCARSGIALAGNAFDIWGQGTMVTVSS
VL: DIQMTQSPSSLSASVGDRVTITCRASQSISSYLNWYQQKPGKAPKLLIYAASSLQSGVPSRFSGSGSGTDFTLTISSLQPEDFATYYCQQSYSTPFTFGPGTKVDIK
notes: also called mAb50; mAb050
Kd [7]: 3.5 nM | koff [7]: 0.00151 s⁻¹ | kon [7]: 431000 M⁻¹ s⁻¹ | % Block at 0.000128 nM [8]: 0% | % Block at 0.0128 nM [8]: 26.3% | % Block at 0.064 nM [8]: 42.8% | % Block at 0.32 nM [8]: 82.3% | % Block at 1.6 nM [8]: 98.7% | % Block at 8 nM [8]: 99% | % Block at 40 nM [8]: 99% | % Block at 200 nM [8]: 99.1% | MFI at 0.000128 nM [9]: 3 | MFI at 0.0128 nM [9]: 31 | MFI at 0.064 nM [9]: 85 | MFI at 0.32 nM [9]: 229 | MFI at 1.6 nM [9]: 491 | MFI at 8 nM [9]: 727 | MFI at 40 nM [9]: 902 | MFI at 200 nM [9]: 886 | IL-2 secretion, pg/ml, at 0.13 ug/ml, N = 1 [10]: 1570 pg/mL | IL-2 secretion, pg/ml, at 0.13 ug/ml, N = 2 [10]: 1450 pg/mL | IL-2 secretion, pg/ml, at 0.37 ug/ml, N = 1 [10]: 2480 pg/mL | IL-2 secretion, pg/ml, at 0.37 ug/ml, N = 2 [10]: 1860 pg/mL | IL-2 secretion, pg/ml, at 1.1 ug/ml, N = 1 [10]: 3460 pg/mL | IL-2 secretion, pg/ml, at 1.1 ug/ml, N = 2 [10]: 2560 pg/mL | IL-2 secretion, pg/ml, at 3.3 ug/ml, N = 1 [10]: 4240 pg/mL | IL-2 secretion, pg/ml, at 3.3 ug/ml, N = 2 [10]: 4200 pg/mL | IL-2 secretion, pg/ml, at 10 ug/ml, N = 1 [10]: 6650 pg/mL | IL-2 secretion, pg/ml, at 10 ug/ml, N = 2 [10]: 5210 pg/mL | IL-2 secretion, pg/ml, at 30 ug/ml, N = 1 [10]: 7650 pg/mL | IL-2 secretion, pg/ml, at 30 ug/ml, N = 2 [10]: 8210 pg/mL | MFI at 0.000128 nM [11]: 2 | MFI at 0.0128 nM [11]: 36 | MFI at 0.064 nM [11]: 97 | MFI at 0.32 nM [11]: 270 | MFI at 1.6 nM [11]: 504 | MFI at 8 nM [11]: 757 | MFI at 40 nM [11]: 810 | MFI at 200 nM [11]: 784
